The chains are these.
B1: bsAb005 (bispecific antibody)
heavy: QVQLVQSGAEVKKPGASVKLSCKASGYIFTRYYMYWVKQRPGQGLEWIGEINPNNGGTKFNEKFKNRATLTVDKSISTAYMELSRLRSDDTAVYYCSREDDYDGTPFAMDYWGQGTLVTVSSASTKGPSVFPLAPSSKSTSGGTAALGCLVKDYFPEPVTVSWNSGALTSGVHTFPAVLQSSGLYSLSSVVTVPSSSLGTQTYICNVNHKPSNTKVDKRVEPKSCDKTHTCPPCPAPEFEGGPSVFLFPPKPKDTLMISRTPEVTCVVVDVSHEDPEVKFNWYVDGVEVHNAKTKPREEQYNSTYRVVSVLTVLHQDWLNGKEYKCKVSNKALPASIEKTISKAKGQPREPQVYTLPPSREEMTKNQVSLTCLVKGFYPSDIAVEWESNGQPENNYKTTPPVLDSDGSFFLYSKLTVDKSRWQQGNVFSCSVMHEALHNHYTQKSLSLSPGGGGGSGGGGSGGGGSGGGGSEIVLTQSPATLSLSPGERATLSCRASKGVSTSGYSYLHWYQQKPGQAPRLLIYLASYLESGVPARFSGSGSGTDFTLTISSLEPEDFAVYYCQHSRDLPLTFGGGTKVEIKGGGGSGGGGSGGGGSGGGGSQVQLVQSGVEVKKPGASVKVSCKASGYTFTNYYMYWVRQAPGQGLEWMGGINPSNGGTNFNEKFKNRVTLTTDSSTTTAYMELKSLQFDDTAVYYCARRDYRFDMGFDYWGQGTTVTVSS
light: not shown
B2: bsAb051 (bispecific antibody, not shown: small tags and cut ends; a dimerising Fc or GST)
heavy (part 1 of 2): QVQLVQSGAEVKKPGASVKLSCKASGYIFTRYYMYWVKQRPGQGLEWIGEINPNNGGTKFNEKFKNRATLTVDKSISTAYMELSRLRSDDTAVYYCSREDDYDGTPFAMDYWGQGTLVTVSS
heavy (part 2 of 2): GGGGSGGGGSGGGGSGGGGSEVQLVESGGGLVQPGGSLRLSCAASGFTFSRYWMSWVRQAPGKGLEWVANIKQDGSEKYYVDSVKGRFTISRDNAKNSLYLQMNSLRAEDTAVYYCAREGGWFGELAFDYWGQGTLVTVSSGGGGSGGGGSGGGGSGGGGSEIVLTQSPGTLSLSPGERATLSCRASQRVSSSYLAWYQQKPGQAPRLLIYDASSRATGIPDRFSGSGSGTDFTLTISRLEPEDFAVYYCQQYGSLPWTFGQGTKVEIK
heavy: GGGGSGGGGSGGGGSGGGGSEVQLVESGGGLVQPGGSLRLSCAASGFTFSRYWMSWVRQAPGKGLEWVANIKQDGSEKYYVDSVKGRFTISRDNAKNSLYLQMNSLRAEDTAVYYCAREGGWFGELAFDYWGQGTLVTVSSGGGGSGGGGSGGGGSGGGGSEIVLTQSPGTLSLSPGERATLSCRASQRVSSSYLAWYQQKPGQAPRLLIYDASSRATGIPDRFSGSGSGTDFTLTISRLEPEDFAVYYCQQYGSLPWTFGQGTKVEIK
light: not shown
B3: bsAb055 (bispecific antibody, not shown: a dimerising Fc or GST; small tags and cut ends)
heavy 1: GGGGSGGGGSGGGGSGGGGSEVQLVESGGGLVQPGGSLRLSCAASGFTFSRYWMSWVRQAPGKGLEWVANIKQDGSEKYYVDSVKGRFTISRDNAKNSLYLQMNSLRAEDTAVYYCAREGGWFGELAFDYWGQGTLVTVSSGGGGSGGGGSGGGGSGGGGSEIVLTQSPGTLSLSPGERATLSCRASQRVSSSYLAWYQQKPGQAPRLLIYDASSRATGIPDRFSGSGSGTDFTLTISRLEPEDFAVYYCQQYGSLPWTFGQGTKVEIK
heavy 2: QVQLVQSGAEVKKPGASVKLSCKASGYIFTRYYMYWVKQRPGQGLEWIGEINPNNGGTKFNEKFKNRATLTVDKSISTAYMELSRLRSDDTAVYYCSREDDYDGTPFAMDYWGQGTLVTVSS
light: not shown
B4: bsAb020 (bispecific antibody)
heavy: DIQMTQSPSSLSASVGDRVTITCHASQNINVWLSWYQQKPGKAPKLLIYKASNLHTGVPSRFTGSGSGTDFTFTISSLQPEDIATYYCQQGQTYPYTFGQGTKLEIKGGGGSGGGGSGGGGSGGGGSQVQLVQSGAEVKKPGASVKLSCKASGYIFTRYYMYWVKQRPGQGLEWIGEINPNNGGTKFNEKFKNRATLTVDKSISTAYMELSRLRSDDTAVYYCSREDDYDGTPFAMDYWGQGTLVTVSSGGGGSGGGGSGGGGSGGGGSEVQLVESGGGLVQPGGSLRLSCAASGFTFSRYWMSWVRQAPGKGLEWVANIKQDGSEKYYVDSVKGRFTISRDNAKNSLYLQMNSLRAEDTAVYYCAREGGWFGELAFDYWGQGTLVTVSSASTKGPSVFPLAPSSKSTSGGTAALGCLVKDYFPEPVTVSWNSGALTSGVHTFPAVLQSSGLYSLSSVVTVPSSSLGTQTYICNVNHKPSNTKVDKRVEPKSCDKTHTCPPCPAPEFEGGPSVFLFPPKPKDTLMISRTPEVTCVVVDVSHEDPEVKFNWYVDGVEVHNAKTKPREEQYNSTYRVVSVLTVLHQDWLNGKEYKCKVSNKALPASIEKTISKAKGQPREPQVYTLPPSREEMTKNQVSLTCLVKGFYPSDIAVEWESNGQPENNYKTTPPVLDSDGSFFLYSKLTVDKSRWQQGNVFSCSVMHEALHNHYTQKSLSLSPG
light: EIVLTQSPGTLSLSPGERATLSCRASQRVSSSYLAWYQQKPGQAPRLLIYDASSRATGIPDRFSGSGSGTDFTLTISRLEPEDFAVYYCQQYGSLPWTFGQGTKVEIKRTVAAPSVFIFPPSDEQLKSGTASVVCLLNNFYPREAKVQWKVDNALQSGNSQESVTEQDSKDSTYSLSSTLTLSKADYEKHKVYACEVTHQGLSSPVTKSFNRGEC
B5: bsAb041 (bispecific antibody, not shown: small tags and cut ends; a dimerising Fc or GST)
heavy (part 1 of 2): EVQLVESGGGLVQPGGSLRLSCAASGFTFSRYWMSWVRQAPGKGLEWVANIKQDGSEKYYVDSVKGRFTISRDNAKNSLYLQMNSLRAEDTAVYYCAREGGWFGELAFDYWGQGTLVTVSS
heavy (part 2 of 2): GGGGSGGGGSGGGGSGGGGSDIQMTQSPSSLSASVGDRVTITCHASQNINVWLSWYQQKPGKAPKLLIYKASNLHTGVPSRFTGSGSGTDFTFTISSLQPEDIATYYCQQGQTYPYTFGQGTKLEIKGGGGSGGGGSGGGGSGGGGSQVQLVQSGAEVKKPGASVKLSCKASGYIFTRYYMYWVKQRPGQGLEWIGEINPNNGGTKFNEKFKNRATLTVDKSISTAYMELSRLRSDDTAVYYCSREDDYDGTPFAMDYWGQGTLVTVSS
heavy: GGGGSGGGGSGGGGSGGGGSDIQMTQSPSSLSASVGDRVTITCHASQNINVWLSWYQQKPGKAPKLLIYKASNLHTGVPSRFTGSGSGTDFTFTISSLQPEDIATYYCQQGQTYPYTFGQGTKLEIKGGGGSGGGGSGGGGSGGGGSQVQLVQSGAEVKKPGASVKLSCKASGYIFTRYYMYWVKQRPGQGLEWIGEINPNNGGTKFNEKFKNRATLTVDKSISTAYMELSRLRSDDTAVYYCSREDDYDGTPFAMDYWGQGTLVTVSS
light: EIVLTQSPGTLSLSPGERATLSCRASQRVSSSYLAWYQQKPGQAPRLLIYDASSRATGIPDRFSGSGSGTDFTLTISRLEPEDFAVYYCQQYGSLPWTFGQGTKVEIKRTVAAPSVFIFPPSDEQLKSGTASVVCLLNNFYPREAKVQWKVDNALQSGNSQESVTEQDSKDSTYSLSSTLTLSKADYEKHKVYACEVTHQGLSSPVTKSFNRGEC
B6: bsAb024 (bispecific antibody)
heavy: QVQLVQSGAEVKKPGASVKLSCKASGYIFTRYYMYWVKQRPGQGLEWIGEINPNNGGTKFNEKFKNRATLTVDKSISTAYMELSRLRSDDTAVYYCSREDDYDGTPFAMDYWGQGTLVTVSSGGGGSGGGGSGGGGSGGGGSDIQMTQSPSSLSASVGDRVTITCHASQNINVWLSWYQQKPGKAPKLLIYKASNLHTGVPSRFTGSGSGTDFTFTISSLQPEDIATYYCQQGQTYPYTFGQGTKLEIKGGGGSGGGGSGGGGSGGGGSEVQLVESGGGLVQPGGSLRLSCAASGFTFSRYWMSWVRQAPGKGLEWVANIKQDGSEKYYVDSVKGRFTISRDNAKNSLYLQMNSLRAEDTAVYYCAREGGWFGELAFDYWGQGTLVTVSSASTKGPSVFPLAPSSKSTSGGTAALGCLVKDYFPEPVTVSWNSGALTSGVHTFPAVLQSSGLYSLSSVVTVPSSSLGTQTYICNVNHKPSNTKVDKRVEPKSCDKTHTCPPCPAPEFEGGPSVFLFPPKPKDTLMISRTPEVTCVVVDVSHEDPEVKFNWYVDGVEVHNAKTKPREEQYNSTYRVVSVLTVLHQDWLNGKEYKCKVSNKALPASIEKTISKAKGQPREPQVYTLPPSREEMTKNQVSLTCLVKGFYPSDIAVEWESNGQPENNYKTTPPVLDSDGSFFLYSKLTVDKSRWQQGNVFSCSVMHEALHNHYTQKSLSLSPG
light: EIVLTQSPGTLSLSPGERATLSCRASQRVSSSYLAWYQQKPGQAPRLLIYDASSRATGIPDRFSGSGSGTDFTLTISRLEPEDFAVYYCQQYGSLPWTFGQGTKVEIKRTVAAPSVFIFPPSDEQLKSGTASVVCLLNNFYPREAKVQWKVDNALQSGNSQESVTEQDSKDSTYSLSSTLTLSKADYEKHKVYACEVTHQGLSSPVTKSFNRGEC
B7: bsAb036 (bispecific antibody, not shown: small tags and cut ends; a dimerising Fc or GST)
heavy (part 1 of 2): EVQLVESGGGLVQPGGSLRLSCAASGFTFSRYWMSWVRQAPGKGLEWVANIKQDGSEKYYVDSVKGRFTISRDNAKNSLYLQMNSLRAEDTAVYYCAREGGWFGELAFDYWGQGTLVTVSS
heavy (part 2 of 2): GGGGSGGGGSGGGGSGGGGSQVQLVQSGAEVKKPGASVKLSCKASGYIFTRYYMYWVKQRPGQGLEWIGEINPNNGGTKFNEKFKNRATLTVDKSISTAYMELSRLRSDDTAVYYCSREDDYDGTPFAMDYWGQGTLVTVSSGGGGSGGGGSGGGGSGGGGSDIQMTQSPSSLSASVGDRVTITCHASQNINVWLSWYQQKPGKAPKLLIYKASNLHTGVPSRFTGSGSGTDFTFTISSLQPEDIATYYCQQGQTYPYTFGQGTKLEIK
heavy: GGGGSGGGGSGGGGSGGGGSQVQLVQSGAEVKKPGASVKLSCKASGYIFTRYYMYWVKQRPGQGLEWIGEINPNNGGTKFNEKFKNRATLTVDKSISTAYMELSRLRSDDTAVYYCSREDDYDGTPFAMDYWGQGTLVTVSSGGGGSGGGGSGGGGSGGGGSDIQMTQSPSSLSASVGDRVTITCHASQNINVWLSWYQQKPGKAPKLLIYKASNLHTGVPSRFTGSGSGTDFTFTISSLQPEDIATYYCQQGQTYPYTFGQGTKLEIK
light: EIVLTQSPGTLSLSPGERATLSCRASQRVSSSYLAWYQQKPGQAPRLLIYDASSRATGIPDRFSGSGSGTDFTLTISRLEPEDFAVYYCQQYGSLPWTFGQGTKVEIKRTVAAPSVFIFPPSDEQLKSGTASVVCLLNNFYPREAKVQWKVDNALQSGNSQESVTEQDSKDSTYSLSSTLTLSKADYEKHKVYACEVTHQGLSSPVTKSFNRGEC

The record followed here is patent publication US20260265379A1.

This test deals with BTN3A expressed at the cell surface (human), O00481. Nature of the test: cell-based or functional assay.
BTN3A expressed at the cell surface (human), O00481, sequence (O00481 30-513): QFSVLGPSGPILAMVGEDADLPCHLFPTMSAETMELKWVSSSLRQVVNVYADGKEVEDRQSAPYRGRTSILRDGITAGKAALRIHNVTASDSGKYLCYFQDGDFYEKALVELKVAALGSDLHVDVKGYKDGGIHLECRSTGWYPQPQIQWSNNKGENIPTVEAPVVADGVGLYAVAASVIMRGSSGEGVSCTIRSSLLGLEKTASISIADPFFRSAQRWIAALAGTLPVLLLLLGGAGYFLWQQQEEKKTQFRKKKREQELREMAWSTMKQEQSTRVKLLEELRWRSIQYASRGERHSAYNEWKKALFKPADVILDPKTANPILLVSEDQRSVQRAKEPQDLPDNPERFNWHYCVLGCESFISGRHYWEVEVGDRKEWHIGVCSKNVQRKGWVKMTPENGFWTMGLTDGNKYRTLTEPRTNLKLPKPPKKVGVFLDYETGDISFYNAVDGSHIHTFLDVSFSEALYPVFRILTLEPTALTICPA
In turn, B1 showed a Jurkat-Vy9Vo2 TCR MOP activation at 0.5 nM (fold-change to medium) of 6 and a Jurkat-Vy9Vo2 TCR MOP activation at 5 nM (fold-change to medium) of 4.2.

As for B2, the Jurkat-Vy9Vo2 TCR MOP activation at 0.5 nM (fold-change to medium) amounted to 1.5 and the Jurkat-Vy9Vo2 TCR MOP activation at 5 nM (fold-change to medium) was 2.3.

In turn, B3 yielded a Jurkat-Vy9Vo2 TCR MOP activation at 0.5 nM (fold-change to medium) of 2.9 and a Jurkat-Vy9Vo2 TCR MOP activation at 5 nM (fold-change to medium) of 11.8.

In turn, B4 gave a Jurkat-Vy9Vo2 TCR MOP activation at 0.5 nM (fold-change to medium) of 1.1 and a Jurkat-Vy9Vo2 TCR MOP activation at 5 nM (fold-change to medium) of 1.

Molecule B5 registered a Jurkat-Vy9Vo2 TCR MOP activation at 0.5 nM (fold-change to medium) of 0.9 and a Jurkat-Vy9Vo2 TCR MOP activation at 5 nM (fold-change to medium) of 1.

In the case of B6, the Jurkat-Vy9Vo2 TCR MOP activation at 0.5 nM (fold-change to medium) was determined as 1 and the Jurkat-Vy9Vo2 TCR MOP activation at 5 nM (fold-change to medium) was found to be 1.

B7: the Jurkat-Vy9Vo2 TCR MOP activation at 0.5 nM (fold-change to medium) was 0.9 and the Jurkat-Vy9Vo2 TCR MOP activation at 5 nM (fold-change to medium) came to 0.9.
